The source of these data is article PMC8214142 (The Biochemical journal, 2021).

The chains are these.
B1: Biotinyl-(GGS)3MLL4Win-NH2 (peptide)
peptide: Biotin-GGSGGSGGSLNPHGAARAEVYLS-NH2
SMILES: CC(C)C[C@H](NC(=O)[C@H](Cc1ccc(O)cc1)NC(=O)[C@@H](NC(=O)[C@H](CCC(=O)O)NC(=O)[C@H](C)NC(=O)[C@H](CCCNC(=N)N)NC(=O)[C@H](C)NC(=O)[C@H](C)NC(=O)CNC(=O)[C@H](Cc1c[nH]cn1)NC(=O)[C@@H]1CCCN1C(=O)[C@H](CC(N)=O)NC(=O)[C@H](CC(C)C)NC(=O)[C@H](CO)NC(=O)CNC(=O)CNC(=O)[C@H](CO)NC(=O)CNC(=O)CNC(=O)[C@H](CO)NC(=O)CNC(=O)CNC(=O)CCCC[C@@H]1SC[C@@H]2NC(=O)N[C@@H]21)C(C)C)C(=O)N[C@@H](CO)C(N)=O
B2: Biotinyl-(GGS)3MLL3Win-NH2 (peptide)
peptide: Biotin-GGSGGSGGSVNPTGCARSEPKMS-NH2
SMILES: CSCC[C@H](NC(=O)[C@H](CCCCN)NC(=O)[C@@H]1CCCN1C(=O)[C@H](CCC(=O)O)NC(=O)[C@H](CO)NC(=O)[C@H](CCCNC(=N)N)NC(=O)[C@H](C)NC(=O)[C@H](CS)NC(=O)CNC(=O)[C@@H](NC(=O)[C@@H]1CCCN1C(=O)[C@H](CC(N)=O)NC(=O)[C@@H](NC(=O)[C@H](CO)NC(=O)CNC(=O)CNC(=O)[C@H](CO)NC(=O)CNC(=O)CNC(=O)[C@H](CO)NC(=O)CNC(=O)CNC(=O)CCCC[C@@H]1SC[C@@H]2NC(=O)N[C@@H]21)C(C)C)[C@@H](C)O)C(=O)N[C@@H](CO)C(N)=O
B3: Biotinyl-(GGS)3SETd1BWin-NH2 (peptide)
peptide: Biotin-GGSGGSGGSEHVTGCARSEGFYT-NH2
SMILES: CC(C)[C@H](NC(=O)[C@H](Cc1c[nH]cn1)NC(=O)[C@H](CCC(=O)O)NC(=O)[C@H](CO)NC(=O)CNC(=O)CNC(=O)[C@H](CO)NC(=O)CNC(=O)CNC(=O)[C@H](CO)NC(=O)CNC(=O)CNC(=O)CCCC[C@@H]1SC[C@@H]2NC(=O)N[C@@H]21)C(=O)N[C@H](C(=O)NCC(=O)N[C@@H](CS)C(=O)N[C@@H](C)C(=O)N[C@@H](CCCNC(=N)N)C(=O)N[C@@H](CO)C(=O)N[C@@H](CCC(=O)O)C(=O)NCC(=O)N[C@@H](Cc1ccccc1)C(=O)N[C@@H](Cc1ccc(O)cc1)C(=O)N[C@H](C(N)=O)[C@@H](C)O)[C@@H](C)O
B4: Biotinyl-(GGS)3MLL2Win-NH2 (peptide)
peptide: Biotin-GGSGGSGGSINPTGCARSEPKIL-NH2
SMILES: CC[C@H](C)[C@H](NC(=O)[C@H](CCCCN)NC(=O)[C@@H]1CCCN1C(=O)[C@H](CCC(=O)O)NC(=O)[C@H](CO)NC(=O)[C@H](CCCNC(=N)N)NC(=O)[C@H](C)NC(=O)[C@H](CS)NC(=O)CNC(=O)[C@@H](NC(=O)[C@@H]1CCCN1C(=O)[C@H](CC(N)=O)NC(=O)[C@@H](NC(=O)[C@H](CO)NC(=O)CNC(=O)CNC(=O)[C@H](CO)NC(=O)CNC(=O)CNC(=O)[C@H](CO)NC(=O)CNC(=O)CNC(=O)CCCC[C@@H]1SC[C@@H]2NC(=O)N[C@@H]21)[C@@H](C)CC)[C@@H](C)O)C(=O)N[C@@H](CC(C)C)C(N)=O
B5: Biotinyl-(GGS)3SETd1AWin-NH2 (peptide)
peptide: Biotin-GGSGGSGGSEHQTGSARSEGYYP-NH2
SMILES: C[C@H](NC(=O)[C@H](CO)NC(=O)CNC(=O)[C@@H](NC(=O)[C@H](CCC(N)=O)NC(=O)[C@H](Cc1c[nH]cn1)NC(=O)[C@H](CCC(=O)O)NC(=O)[C@H](CO)NC(=O)CNC(=O)CNC(=O)[C@H](CO)NC(=O)CNC(=O)CNC(=O)[C@H](CO)NC(=O)CNC(=O)CNC(=O)CCCC[C@@H]1SC[C@@H]2NC(=O)N[C@@H]21)[C@@H](C)O)C(=O)N[C@@H](CCCNC(=N)N)C(=O)N[C@@H](CO)C(=O)N[C@@H](CCC(=O)O)C(=O)NCC(=O)N[C@@H](Cc1ccc(O)cc1)C(=O)N[C@@H](Cc1ccc(O)cc1)C(=O)N1CCC[C@H]1C(N)=O

* marks the point of attachment. Biotin = O=C1N[C@H]2[C@H](CS[C@H]2CCCCC(=O)*)N1

In one experiment the target is T1, WD40 repeat protein 5 (WDR5), human (human, UniProt P61964 1-334). Briefly: SPR. (In general: Surface plasmon resonance follows binding to a sensor surface in real time, without labels.)
As a reminder, the koff is the first-order rate constant of dissociation. Low readings indicate a long-lived complex, high ones a short-lived complex. Broadly, the kon is the rate constant with which the complex forms. Read a high kon as faster complex formation. {sulforhodamine B}-GGSGGSGGSLNPHGAARAEVYLS-NH2 [Sulforhodamine B-(GGS)3MLL4Win-NH2]: the koff was 0.041 s⁻¹ and the kon is 210000 M⁻¹ s⁻¹.

Molecule {sulforhodamine B}-GGSGGSGGSVNPTGCARSEPKMS-NH2 [Sulforhodamine B-(GGS)3MLL3Win-NH2] showed a koff of 0.009 s⁻¹ and a kon of 490000 M⁻¹ s⁻¹.

With {sulforhodamine B}-GGSGGSGGSEHVTGCARSEGFYT-NH2 [Sulforhodamine B-(GGS)3SETd1BWin-NH2], the koff was determined as 0.024 s⁻¹ and the kon amounted to 340000 M⁻¹ s⁻¹.

{sulforhodamine B}-GGSGGSGGSINPTGCARSEPKIL-NH2 [Sulforhodamine B-(GGS)3MLL2Win-NH2] came in with a koff of 0.012 s⁻¹ and a kon of 370000 M⁻¹ s⁻¹.

As to {sulforhodamine B}-GGSGGSGGSEHQTGSARSEGYYP-NH2 [Sulforhodamine B-(GGS)3SETd1AWin-NH2], the koff is 0.11 s⁻¹ and the kon was determined as 310000 M⁻¹ s⁻¹.

A further experiment addresses T1, WD40 repeat protein 5 (WDR5), human. Briefly: BLI. Background: BLI is a label-free optical method that tracks binding on a fibre tip over time.
As a reminder, the Kd is the free concentration of one partner at which half of the binding sites on the other are occupied at equilibrium, for simple one-to-one binding. A lower Kd goes with tighter binding. For the molecule B1, binding was put at a Kd of 1700 nM, the off-rate constant (koff) amounted to 0.039 s⁻¹ and the kon came to 23000 M⁻¹ s⁻¹.

Regarding B2, binding was put at a Kd of 100 nM, the koff was 0.0053 s⁻¹ and the kon was determined as 54000 M⁻¹ s⁻¹.

Turning to B3, the affinity, expressed as Kd, was 250 nM; the koff was determined as 0.017 s⁻¹; the kon was determined as 71000 M⁻¹ s⁻¹.

Regarding B4, binding was put at a Kd of 170 nM, the off-rate (koff) amounted to 0.0077 s⁻¹ and the kon was found to be 44000 M⁻¹ s⁻¹.

In turn, B5 showed a Kd of 620 nM, an off-rate constant (koff) of 0.051 s⁻¹ and a kon of 82000 M⁻¹ s⁻¹.
